Several values for one entry are separate records, joined by “and”; a condition that tells them apart may be missing. Identical values can stand only once.
Target: N-terminal domain of mouse gasdermin-A3 released by TEV cleavage (mGSDMA3^Nterm) (mouse) (UniProt Q5Y4Y6)
Test: atomic force microscopy; supported lipid membranes (E. coli polar lipid extract) on mica incubated 3 h at 37 °C with 1.5 µM mGSDMA3 pre-cleaved with 0.4 µM TEV, rinsed, imaged by contact mode or FD-based AFM at room temperature in 50 mM NaCl, 0.1 mM EDTA, 0.1 mM TCEP, 20 mM Hepes, pH 7.4; subunits of ring-shaped oligomers counted from rotational power spectra

## N-terminal domain of mouse gasdermin-A3 released by TEV cleavage (mGSDMA3^Nterm) (from UniProt Q5Y4Y6 1-237) (domain or fragment)
  stoichiometry N: 18 to 36 (2×) and 30

Source: paper PMC9095878
